# Measurements: PMC11996674, “Mechanism of mammalian transcriptional repression by noncoding RNA”
# B1: minimal Alu-RA (structured_RNA)
# RNA: GAGGCAGGAGAAUGGCGUGAACCCGGGAGGUGGACGAGAUCGCUCCAGCCUGGGUGACAGAGCGAGACUCUGUCUC
# Biological target: RNA polymerase II (12-subunit) (Sus scrofa (thymus), UniProt A0A8D1DPV6;A0A0B8RVL1;P19387;O15514;P19388;P61218;P62487;P52434;P60899;P62875;A0 …)
# Test: cryo-EM; alternative conformation, EMD-18376; FA: 5 mM HEPES-NaOH pH 7.25, 150 mM NaCl, 10 uM ZnCl2, 1 mM MgCl2, 1 mM DTT, 4 nM RNA, 30 C; EMSA: 20 mM HEPES-NaOH pH 7.25, 150 mM NaCl, 1 mM MgCl2, 5% glycerol, 40 ug/ml BSA, 1 mM DTT, 5 nM RNA, 30 C (gel 4 C)
# Conditions: protein: native; copies: 1;1;1;1;1;1;1;1;1;1;1;1; folded; canonical and alternative conformations
binder,measurement,value
B1,binding result,binds
